Results taken from US20250313626A1 (HARBOUR BIOMED SHANGHAI, published 2025).
Where two headings read alike, the source gives them in different places.

T1: CD200R1a on PathHunter Jurkat CD200R1a signaling cells (Eurofins DiscoverX, 93-1136C19) (human, UniProt Q8TD46 25-348)
T1 sequence: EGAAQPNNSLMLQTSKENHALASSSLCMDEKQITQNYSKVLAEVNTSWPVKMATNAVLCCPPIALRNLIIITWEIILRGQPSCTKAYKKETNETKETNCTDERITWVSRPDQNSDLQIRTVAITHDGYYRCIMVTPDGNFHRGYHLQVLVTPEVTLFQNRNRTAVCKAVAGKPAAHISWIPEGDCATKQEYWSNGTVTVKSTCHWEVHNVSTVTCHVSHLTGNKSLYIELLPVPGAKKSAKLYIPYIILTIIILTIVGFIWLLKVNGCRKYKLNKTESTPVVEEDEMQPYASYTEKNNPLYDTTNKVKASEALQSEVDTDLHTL

T2: human CD200R1 isoform a on CHOK1 cells (CHOK1/hCD200R1a) (human, UniProt Q8TD46 25-348)
T2 construct: also called CHOK1/CD200R1a
T2 sequence: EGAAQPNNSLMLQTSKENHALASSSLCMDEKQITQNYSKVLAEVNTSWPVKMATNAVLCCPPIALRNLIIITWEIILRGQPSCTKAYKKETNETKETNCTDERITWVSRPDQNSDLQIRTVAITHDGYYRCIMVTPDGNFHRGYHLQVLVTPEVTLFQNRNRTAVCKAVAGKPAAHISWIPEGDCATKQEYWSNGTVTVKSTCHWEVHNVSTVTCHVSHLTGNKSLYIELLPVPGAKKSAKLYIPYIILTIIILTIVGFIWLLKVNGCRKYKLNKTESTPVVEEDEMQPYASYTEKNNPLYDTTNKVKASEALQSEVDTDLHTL

T3: Cynomolgus macaques CD200R1 isoform a on CHOK1 cells (CHOK1/cynoCD200R1a) (Cynomolgus macaques)
T3 chain: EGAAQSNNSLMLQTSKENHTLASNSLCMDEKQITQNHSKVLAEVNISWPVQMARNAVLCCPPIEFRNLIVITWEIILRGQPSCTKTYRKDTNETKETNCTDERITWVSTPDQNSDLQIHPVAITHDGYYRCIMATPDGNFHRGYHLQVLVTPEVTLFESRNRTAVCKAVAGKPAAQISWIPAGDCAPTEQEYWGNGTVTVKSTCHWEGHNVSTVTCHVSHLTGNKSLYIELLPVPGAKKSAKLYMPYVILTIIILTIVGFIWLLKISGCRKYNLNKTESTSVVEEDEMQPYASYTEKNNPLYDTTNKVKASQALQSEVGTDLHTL

T4: human CD200R1a protein (soluble recombinant) (human, UniProt Q8TD46 29-265)
T4 construct: Soluble protein used in BLI; also called human CD200R1 isoform a; not shown: His tag implied by capture on anti-Penta-HIS biosensors
T4 sequence: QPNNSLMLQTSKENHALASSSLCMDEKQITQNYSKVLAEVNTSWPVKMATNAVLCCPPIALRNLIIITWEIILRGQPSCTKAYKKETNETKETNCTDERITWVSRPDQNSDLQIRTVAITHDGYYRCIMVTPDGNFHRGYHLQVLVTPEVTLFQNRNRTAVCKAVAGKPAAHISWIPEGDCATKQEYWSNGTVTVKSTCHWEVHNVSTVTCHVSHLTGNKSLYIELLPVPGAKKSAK

B1: Fc-tagged human CD200 protein (Fc fusion)
chain: QVQVVTQDEREQLYTPASLKCSLQNAQEALIVTWQKKKAVSPENMVTFSENHGVVIQPAYKDKINITQLGLQNSTITFWNITLEDEGCYMCLFNTFGFGKISGTACLTVYVQPIVSLHYKFSEDHLNITCSATARPAPMVFWKVPRSGIENSTVTLSHPNGTTSVTSILHIKDPKNQVGKEVICQVLHLGTVTDFKQTVNKG
notes: also called hCD200; not shown: Fc tag

Tests used:
[1] = molecular target: T1, CD200R1a on PathHunter Jurkat CD200R1a …; test: cell-based or functional assay
[2] = molecular target: T1, CD200R1a on PathHunter Jurkat CD200R1a …; test: cell-based or functional assay; remark: listed apart in the source
[3] = molecular target: T2, human CD200R1 isoform a on CHOK1 cells …; test: flow cytometry, CHOK1/hCD200R1a cells (FITC-Mean); table beside the curves
Description: This example is intended to investigate the in vitro binding activity of human anti-CD200R1 monoclonal antibodies to human/Cynomolgus macaques CD200R1a expressed on the surface of cells. The anti-CD200R1 antibodies were produced as described in Example 3.4 and the binding experiments at the cell level were performed using CHOK1/hCD200R1a and CHOK1-cynoCD200R1a.
Briefly, CHOK1/hCD200R1a cells and CHOK1-cynoCD200R1a cells were digested, and collected, and then were resuspended in PBS containing 2% BSA, respectively. The cell density was adjusted to 1×10⁶ cells/mL. The cells were seeded in a 96-well V-bottom plate (Corning, #3894) at 100 μL/well, followed by the addition of test antibodies and reference antibodies in a series diluted concentration, each at 100 μL/well. The cells were incubated away from light at 4° C. for 1 h. Thereafter, the cells in each well were rinsed twice with 100 μL of pre-cooled PBS containing 2% BSA, and centrifuged at 500 g at 4° C. for 5 min, and then the supernatant was discarded. 100 μL of fluorescent secondary antibody (Alexa Fluor 488-conjugated AffiniPure Goat Anti-Human IgG, Fcγ Fragment Specific, Jackson, #109-545-098, diluted in a 1:1000 ratio) was added in each well, and the plate was incubated away from light at 4° C. for 1 h. The cells in each well were rinsed twice with 100 μL of pre-cooled PBS containing 2% BSA, and centrifuged at 500 g at 4° C. for 5 min, and then the supernatant was discarded. Finally, the cells in each well were resuspended in 200 μL of pre-cooled PBS containing 2% BSA, and the fluorescence signal values were read using a BD CantoII flow cytometer.

[4] = molecular target: T3, Cynomolgus macaques CD200R1 isoform a …; test: flow cytometry, CHOK1/cynoCD200R1a cells (APC-A Mean); table beside the curves
[5] = molecular target: T2, human CD200R1 isoform a on CHOK1 cells …; test: flow cytometry blocking assay: biotin-labelled human CD200 binding to CHOK1/hCD200R1a cells; y axis Inhibition %
Description: (§1) In brief, CHOK1/hCD200R1a cells were digested and resuspended in 2% BSA in PBS. […] The cells were placed at 4° C. and incubated for 1 hour in the dark. […] 100 μL/well of pre-cooled PBS containing 2% BSA was added to rinse the cells twice, centrifugation was performed at 500 g, 4° C. for 5 minutes, and the supernatant was discarded. Fluorescent secondary antibody (PE Streptavidin, BD, Cat #: 554061, 1:200) was added at 100 μL/well, and incubation was performed at 4° C. for 30 minutes in the dark. The cells were washed twice with 200 μL/well of pre-cooled PBS, and were centrifuged at 500 g, 4° C. for 5 minutes, and the supernatant was discarded. Finally, 200 μL/well of pre-cooled PBS was used to resuspend the cells, and the fluorescence signal values were read using ACEA Novocyte 3000 flow cytometer. IC50 values were calculated.

[6] = molecular target: T2, human CD200R1 isoform a on CHOK1 cells …; test: flow cytometry, CHOK1/hCD200R1a cells (FITC-Mean); table beside the curves, head without unit, x axis Log [Ab] (nM)
[7] = molecular target: T2, human CD200R1 isoform a on CHOK1 cells …; test: flow cytometry blocking assay: antibody titrated against biotin-labelled human CD200 binding to CHOK1/hCD200R1a cells; head prints EC50 without unit, x axis Log [Ab] (nM), y axis Inhibition %
Description: as §1

[8] = molecular target: B1; test: BLI (Octet), Fc-tagged hCD200 captured on anti-human Fc sensor, soluble CD200R1a as analyte, 1:1 fit
[9] = molecular target: T4, human CD200R1a protein (soluble …); test: BLI in-tandem competition on His-captured human CD200R1a; row = 1st Ab (400 nM); competitor (2nd Ab) PR006207
Description: (§2) To determine if the anti-CD200R1 antibodies bind to human CD200R1a on different or approximate binding epitopes, epitope competition experiments for the anti-CD200R1 antibodies were performed by the ForteBlio Octet® RED96e platform. […] The in-tandem competition assay format was applied, and it contained two association steps. Firstly, the antigen-loaded biosensors bound to each antibody (i.e., First antibody, 1st Ab) at a saturating concentration of 400 nM for 300 seconds to reach equilibrium and then secondly bound to the competing antibodies (i.e., Second antibody, 2nd Ab) of 400 nM for 300 seconds. The second binding signals are recorded as the 100% signal of each antibody when the first antibodies are replaced by kinetic buffer. All the binding data were analyzed using ForteBlio Data Analysis 11.0 software. The inhibition rate was calculated by the following formula: […]

[10] = molecular target: T4, human CD200R1a protein (soluble …); test: BLI in-tandem competition on His-captured human CD200R1a; row = 1st Ab (400 nM); competitor (2nd Ab) PR007221
Description: as §2

[11] = molecular target: T4, human CD200R1a protein (soluble …); test: BLI in-tandem competition on His-captured human CD200R1a; row = 1st Ab (400 nM); competitor (2nd Ab) PR007223
Description: as §2

[12] = molecular target: T4, human CD200R1a protein (soluble …); test: BLI in-tandem competition on His-captured human CD200R1a; row = 1st Ab (400 nM); competitor (2nd Ab) PR007973
Description: as §2

[13] = molecular target: T4, human CD200R1a protein (soluble …); test: BLI (Octet), Fc-tagged hCD200 captured on anti-human Fc sensor, soluble CD200R1a as analyte, 1:1 fit

Row | Binder | IC50 of the inhibition of CD200-induced PathHunter Jurkat CD200R1a luminescence (CHOK1/hCD200 cells as CD200 source) [1] | MFI(Max) [3] | EC50 [4] | MFI (MAX) [4] | Blocking(Max) [5] | EC50 [6] | EC50 [7] | other results
1 | PR006895 (antibody, human IgG1, kappa, Fc variant of PR006480: human IgG1 with L234A, L235A, G237A (EU)) heavy: not shown light: DIQMTQSPPSLSASVGDRVTITCRASQSISSYLNWFQQKAGKAPKLLISATSNLQSGVPSRFSGSGSGTDFTLTISSLQPEDLATYYCQQSYSSPYTFGQGTKVEIKRTVAAPSVFIFPPSDEQLKSGTASVVCLLNNFYPREAKVQWKVDNALQSGNSQESVTEQDSKDSTYSLSSTLTLSKADYEKHKVYACEVTHQGLSSPVTKSFNRGEC | 0.988 nM | 8410 | 20.5 nM | 33400 | 49.8% | 0.172 nM | 0.339 nM | IC50 of the inhibition of CD200-induced PathHunter Jurkat CD200R1a luminescence (CHOK1/hCD200 cells as CD200 source) [2]: 0.886 nM
2 | PR007442 (antibody, human IgG1, kappa, PTM variant of PR006895 (human IgG1)) heavy: not shown light: DIQMTQSPPSLSASVGDRVTITCRASQSISSYLNWFQQKAGKAPKLLISATSNLQSGVPSRFSGSGSGTDFTLTISSLQPEDLATYYCQQTLSSPYTFGQGTKVEIKRTVAAPSVFIFPPSDEQLKSGTASVVCLLNNFYPREAKVQWKVDNALQSGNSQESVTEQDSKDSTYSLSSTLTLSKADYEKHKVYACEVTHQGLSSPVTKSFNRGEC | 0.844 nM | 8850 | 6.86 nM | 50100 | 80% | 0.108 nM | 0.19 nM | 
3 | Cyno CD200R1a-His (receptor, Soluble protein used in BLI; also called Cynomolgus macaques CD200R1a recombinant protein; not shown: His tag) EGAAQSNNSLMLQTSKENHTLASNSLCMDEKQITQNHSKVLAEVNISWPVQMARNAVLCCPPIEFRNLIVITWEIILRGQPSCTKTYRKDTNETKETNCTDERITWVSTPDQNSDLQIHPVAITHDGYYRCIMATPDGNFHRGYHLQVLVTPEVTLFESRNRTAVCKAVAGKPAAQISWIPAGDCAPTEQEYWGNGTVTVKSTCHWEGHNVSTVTCHVSHLTGNKSLYIELLPVPGAKKSAK |  |  |  |  |  |  |  | Kd [8]: 197 nM; koff [8]: 0.0316 s⁻¹; kon [8]: 161000 M⁻¹ s⁻¹
4 | PR006207 (antibody, human IgG1, kappa, L234A L235A, V domains shown, also called recombinant antibody of I-4P) VH: QVQLVQSGAEVKKPGASVKVSCKASGFSFSSGYYMAWVRQAPGQGLEWMGLIGVGSGSLWYAQKFQGRVTMTRDTSTSTVYMELSSLRSEDTAVYYCARHFALSDPFNLWGQGTLVTVSS VL: EIVLTQSPDFQSVTPKEKVTITCQASESIDSYLLWYQQKPDQSPKLLIKQASTLASGVPSRFSGSGSGTDFTLTINSLEAEDAATYYCQNYYDISSNDFGGGTKVEIKR |  |  |  |  |  |  |  | Inhibition ratio (%) [9]: 97.6%; Inhibition ratio (%) [10]: -36.2%; Inhibition ratio (%) [11]: -38.6%; Inhibition ratio (%) [12]: -39.9%
5 | B1 |  |  |  |  |  |  |  | Kd [13]: 77.1 nM; koff [13]: 0.0177 s⁻¹; kon [13]: 230000 M⁻¹ s⁻¹
